B1: r16_88_TrROS_Hall (parent)
chain: EVIELKIKFKTPEQREKLKEIAKKLNAEVVEEKDGEVIIRFKTPEQAERALKEAEKLGAEVEL

Variants of: B1
Assay: folding stability dG (cDNA display proteolysis); higher = more stable
Settings: PBS, room temperature

Row | Variant | folding stability dG [kcal/mol]
1 | L18F | 4.29
2 | L18P | 1.65
3 | L18Y | 4.53
4 | L18I | 4.33
5 | L18A | 4.39
6 | L18R | 2.12
7 | L18E | 1.57
8 | L18H | 3.49
9 | L18M | 4.28
10 | L18G | 3.83
11 | L18N | 2.97
12 | L18K | 1.68
13 | L18Q | 2.9
14 | L18T | 4.15
15 | L18W | 4.54
16 | L18C | 4.11
17 | L18S | 4.19
18 | L18D | 1.24
19 | L18V | 4.26
20 | N26E | 4.09
21 | N26K | 4.44
22 | N26M | 4.53
23 | N26L | 4.16
24 | N26G | 4.43

Row | Variant | folding stability dG [kcal/mol]
25 | N26T | 4.41
26 | N26V | 4.35
27 | N26P | 3.84
28 | N26Y | 4.31
29 | N26D | 4.3
30 | N26R | 4.42
31 | N26S | 4.45
32 | N26A | 4.41
33 | N26H | 4.24
34 | N26Q | 4.45
35 | N26F | 4.24
36 | N26I | 4.19
37 | N26C | 4.33
38 | N26W | 4.36
39 | V30P | 4.07
40 | V30T | 4.39
41 | V30R | 4.42
42 | V30Y | 4.42
43 | V30W | 4.39
44 | V30C | 4.38
45 | V30H | 4.35
46 | V30L | 4.44
47 | V30A | 4.58
48 | V30E | 4.59

Row | Variant | folding stability dG [kcal/mol]
49 | V30K | 4.48
50 | V30I | 4.46
51 | V30S | 4.51
52 | V30F | 4.61
53 | V30G | 4.26
54 | V30M | 4.49
55 | V30Q | 4.3
56 | V30N | 4.52
57 | V30D | 4.27
58 | A27C | 4.25
59 | A27G | 4.37
60 | A27W | 4.42
61 | A27N | 3.76
62 | A27D | 3.12
63 | A27V | 4.24
64 | A27E | 3.84
65 | A27K | 3.95
66 | A27L | 4.45
67 | A27T | 4.26
68 | A27M | 4.42
69 | A27Y | 4.25
70 | A27R | 3.72
71 | A27F | 4.4
72 | A27S | 4.31

Row | Variant | folding stability dG [kcal/mol]
73 | A27P | 4.01
74 | A27Q | 3.88
75 | A27H | 4.04
76 | A27I | 4.34
77 | A22V | 4.38
78 | A22R | 4.18
79 | A22Y | 4.74
80 | A22T | 4.36
81 | A22K | 3.78
82 | A22H | 4.21
83 | A22P | 3.7
84 | A22F | 4.65
85 | A22Q | 4.39
86 | A22W | 4.68
87 | A22M | 4.35
88 | A22G | 4.64
89 | A22N | 4.12
90 | A22L | 4.62
91 | A22S | 4.19
92 | A22D | 2.91
93 | A22I | 4.38
94 | A22E | 4.17
95 | A22C | 4.17
96 | R15E | 4.31

Row | Variant | folding stability dG [kcal/mol]
97 | R15S | 4.17
98 | R15Y | 4.58
99 | R15A | 4.13
100 | R15V | 4.29
101 | R15G | 3.95
102 | R15K | 4.13
103 | R15D | 4.11
104 | R15T | 4.16
105 | R15M | 4.31
106 | R15F | 4.35
107 | R15H | 4.27
108 | R15W | 4.66
109 | R15I | 4.37
110 | R15Q | 4.22
111 | R15N | 4.17
112 | R15C | 4.31
113 | R15P | 3.44
114 | R15L | 4.18
115 | E28Q | 4.51
116 | E28G | 4.33
117 | E28R | 4.37
118 | E28F | 4.17
119 | E28D | 4.26
120 | E28V | 4.41

Row | Variant | folding stability dG [kcal/mol]
121 | E28I | 4.45
122 | E28A | 4.29
123 | E28H | 4.43
124 | E28P | 4.34
125 | E28S | 4.1
126 | E28T | 4.4
127 | E28N | 4.17
128 | E28M | 4.17
129 | E28K | 4.17
130 | E28C | 4.65
131 | E28L | 4.24
132 | E28Y | 4.36
133 | E28W | 4.53
134 | I21S | 4.17
135 | I21Q | 4.06
136 | I21P | 1.81
137 | I21M | 4.43
138 | I21R | 3.62
139 | I21D | 3.4
140 | I21T | 4.33
141 | I21Y | 4.78
142 | I21C | 4.31
143 | I21V | 4.33
144 | I21A | 4.15

Row | Variant | folding stability dG [kcal/mol]
145 | I21L | 4.39
146 | I21G | 3.77
147 | I21H | 4.29
148 | I21F | 4.76
149 | I21N | 4.13
150 | I21K | 3.78
151 | I21E | 4
152 | E16R | 4.54
153 | E16I | 4.38
154 | E16H | 4.59
155 | E16A | 4.32
156 | E16F | 4.73
157 | E16V | 4.47
158 | E16N | 4.5
159 | E16Q | 4.43
160 | E16P | 4.03
161 | E16D | 4.24
162 | E16G | 4.52
163 | E16C | 4.51
164 | E16K | 4.47
165 | E16T | 4.36
166 | E16M | 4.6
167 | E16L | 4.6
168 | E16S | 4.44

Row | Variant | folding stability dG [kcal/mol]
169 | K17Y | 4.56
170 | K17H | 4.4
171 | K17V | 4.28
172 | K17M | 4.42
173 | K17E | 4.3
174 | K17D | 4.49
175 | K17L | 4.53
176 | K17W | 4.61
177 | K17T | 4.2
178 | K17I | 4.18
179 | K17A | 4.54
180 | K17G | 4.38
181 | K17S | 4.45
182 | K17Q | 4.42
183 | K17C | 4.36
184 | K17P | 4.28
185 | K17N | 4.42
186 | K17F | 4.57
187 | K17R | 4.51
188 | E13T | 4.32
189 | E13V | 4.37
190 | E13Y | 4.76
191 | E13W | 4.85
192 | E31N | 4.49

Row | Variant | folding stability dG [kcal/mol]
193 | E31L | 4.62
194 | E31M | 4.37
195 | E31G | 4.41
196 | E31I | 4.45
197 | E31D | 4.45
198 | E31H | 4.63
199 | E31C | 4.51
200 | E31F | 4.61
201 | E31K | 4.34
202 | E31P | 4.06
203 | E31A | 4.29
204 | K24P | 3.96
205 | K24Q | 4.56
206 | K24R | 4.38
207 | K24V | 4.61
208 | K24E | 4.43
209 | K24N | 4.46
210 | K24D | 4.39
211 | K24S | 4.47
212 | K24L | 4.5
213 | K24T | 4.48
214 | K24I | 4.49
215 | K24A | 4.28
216 | K24G | 4.47

Row | Variant | folding stability dG [kcal/mol]
217 | K24F | 4.67
218 | K24W | 4.77
219 | K24H | 4.3
220 | K24M | 4.4
221 | K24C | 4.53
222 | K24Y | 4.84
223 | K23T | 4.63
224 | K23A | 4.21
225 | K23W | 4.8
226 | K23V | 4.62
227 | K23D | 4.09
228 | K23R | 4.48
229 | K23L | 4.53
230 | K23S | 4.55
231 | K23H | 4.28
232 | K23C | 4.61
233 | K23E | 4.36
234 | K23P | 3.93
235 | K23M | 4.54
236 | K23N | 4.34
237 | K23I | 4.56
238 | K23Q | 4.27
239 | K23G | 4.43
240 | K19E | 4.12

Row | Variant | folding stability dG [kcal/mol]
241 | K19D | 4.31
242 | K19I | 4.31
243 | K19V | 4.14
244 | K19R | 4.3
245 | K19S | 4.25
246 | K19F | 4.62
247 | K19G | 4.38
248 | K19A | 4.18
249 | K19P | 3.37
250 | K19N | 4.11
251 | K19T | 4.49
252 | K19Y | 4.89
253 | K19M | 4.42
254 | K19L | 4.5
255 | K19W | 4.7
256 | K19H | 4.29
257 | K19C | 4.22
258 | K19Q | 4.3
259 | V29A | 4.3
260 | V29Q | 4.76
261 | V29L | 4.2
262 | V29E | 4.47
263 | V29K | 4.39
264 | V29W | 4.3

Row | Variant | folding stability dG [kcal/mol]
265 | V29R | 4.57
266 | V29N | 4.62
267 | V29P | 4.1
268 | V29F | 4.23
269 | V29D | 4.14
270 | V29G | 4.47
271 | V29S | 4.32
272 | V29Y | 4.55
273 | V29H | 4.53
274 | V29M | 4.4
275 | V29T | 4.21
276 | V29I | 4.3
277 | V29C | 4.49
278 | Q14G | 4.33
279 | Q14V | 4.38
280 | Q14I | 4.1
281 | Q14A | 4.33
282 | Q14T | 4.3
283 | Q14F | 4.25
284 | Q14L | 4.33
285 | Q14H | 4.2
286 | Q14E | 3.98
287 | Q14Y | 4.18
288 | Q14C | 4.28

Row | Variant | folding stability dG [kcal/mol]
289 | Q14M | 4.43
290 | Q14N | 4.47
291 | Q14W | 4.3
292 | Q14P | 3.48
293 | Q14R | 4.42
294 | Q14S | 4.19
295 | Q14K | 4.09
296 | Q14D | 4.16
297 | L25D | 4.31
298 | L25N | 4.13
299 | L25V | 4.32
300 | L25I | 4.46
301 | L25F | 4.63
302 | L25G | 4.23
303 | L25Q | 4.42
304 | L25A | 4.05
305 | L25W | 4.85
306 | L25R | 4.09
307 | L25P | 3.67
308 | L25E | 4.25
309 | L25C | 4.35
310 | L25S | 4.33
311 | L25H | 4.62
312 | L25M | 4.28

Row | Variant | folding stability dG [kcal/mol]
313 | L25T | 4.29
314 | L25K | 3.82
315 | L25Y | 4.91
316 | E20R | 4.59
317 | E20K | 4.39
318 | E20S | 4.41
319 | E20H | 4.5
320 | E20D | 4.26
321 | E20Y | 4.95
322 | E20M | 4.79
323 | E20I | 4.45
324 | E20C | 4.51
325 | E20L | 4.87
326 | E20Q | 4.22
327 | E20G | 4.32
328 | E20F | 4.98
329 | E20W | 4.75
330 | E20T | 4.5
331 | E20P | 3.68
332 | E20V | 4.47
333 | E20A | 4.37
334 | E20N | 4.25

Source: the MegaScale stability set (Tsuboyama et al. 2023)
